According to patent US20230257472A1:

B1: B1 phage display single-chain antibody (scFv, part only; not given: scFv linker, phage partner, tag, V domains shown, not shown: another chain or arm of the molecule; large carriers; small tags and cut ends)
VH: QVQMQQSGAELVKPGASVMMSCKASGYTFTTYNIHWIKQTPGQGLEWIGDIYPGNGDASYNQKFRDRATLTADRSSSTAYLQLSSLTSEDSAIYYCATFSRFDGWFAYWGQGTLVTVSA
VL: DIVMSQSPASLAVSLGQRATISCRASRSVSTSGYSYMHWYQQKPGQPPKLLIYLASNLESGVPARFSGSGSGTNFTLNIHPVEEEDAATYYCQHSRELPYTFGGGTKLEIK
B2: F4 phage display single-chain antibody (scFv, part only; not given: scFv linker, phage partner, tag, V domains shown, not shown: another chain or arm of the molecule; large carriers; small tags and cut ends)
VH: QVQLKQSGAELVKPGASVKMSCKASGDTFPRYNMHWLKQTPGQGLEWIGAIFPGNGETSYNQNFKGKATLTADKSSSTAYMQLNSLTSEDSAVYYCARNSYYDYAWFTYWGQGTLVTVSA
VL: DIVMTQSPASLDVSLGQRATISCRASKSVSSSGYSFMHWYQQKPGQPPKLLISLASNLESGVPARFSGSGSGTDFTLTIYPVEEEDAATYYCQHSREFPPTFGSGTKLEIK
B3: B7 phage display single-chain antibody (scFv, part only; not given: linker; VH end may be cut, part only)
scFv, part: QIQLVQSGPELKKPGETVKISCKTSGYTFTNYGMNWVRQAPGKGLKWMGWINTYTGEPTYADDFKGRFAFSLETSAGTAYLQINNLENEDTATYFCARGDSFTTEILRNWYFDVWGAGTTDIQMTQTPASLSASVGETVTITCGASENIYGALNWYQRKQGKSPQLLIYGATNLADGMSSRFSGSGSGRQYSLKISSLHPDDVATYYCQNVLSTPWTFGGGTKLEMK

These binders were tested against His-tagged CD70 protein extracellular domain (His-TNC-CD70) (human) (assay: phage ELISA, 2 ug/mL His-TNC-CD70 coated, anti-M13-HRP).
Sequence of His-tagged CD70 protein extracellular domain (His-TNC-CD70) (human) (chain, as listed by the source limits assumed): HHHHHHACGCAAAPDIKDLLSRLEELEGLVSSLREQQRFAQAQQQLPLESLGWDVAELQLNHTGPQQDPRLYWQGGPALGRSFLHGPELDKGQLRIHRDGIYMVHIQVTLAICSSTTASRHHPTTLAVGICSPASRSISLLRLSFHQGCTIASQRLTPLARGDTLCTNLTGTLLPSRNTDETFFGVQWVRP
B1 gave a Reading at OD450 nm of microplate reader of 1.16 OD450. B2 was tested, and the Reading at OD450 nm of microplate reader was 1.09 OD450. In the case of B3, the Reading at OD450 nm of microplate reader is reported as 1.97 OD450.
